Experimental findings from paper doi:10.1101/2024.05.15.594416 (bioRxiv, 2024) are described below.

Substitutions are numbered along the chain they refer to. Names may count otherwise.

For assay [1], the target named is T1, soluble CD14 Surface II mutant (R90E/R92E/R117E) (human, UniProt P08571 20-367, R90E | R92E | R117E).
T1 sequence (looked up): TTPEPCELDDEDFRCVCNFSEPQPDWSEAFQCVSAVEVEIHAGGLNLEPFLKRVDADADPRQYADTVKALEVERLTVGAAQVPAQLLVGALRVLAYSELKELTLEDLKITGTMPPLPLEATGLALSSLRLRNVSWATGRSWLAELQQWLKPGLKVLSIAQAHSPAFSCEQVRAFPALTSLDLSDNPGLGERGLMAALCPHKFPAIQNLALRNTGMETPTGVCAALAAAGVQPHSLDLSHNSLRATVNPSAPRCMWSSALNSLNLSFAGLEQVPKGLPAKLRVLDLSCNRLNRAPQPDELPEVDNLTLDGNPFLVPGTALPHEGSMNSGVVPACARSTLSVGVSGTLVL
Description: BLI. (In general: In BLI a coated tip is dipped into the sample, and binding shifts an interference pattern.)

Assay [2] addresses T2, soluble CD14 (sCD14), wildtype (human, UniProt P08571 20-367).
T2 sequence (looked up): T1 sequence (looked up) with E71R, E73R, E98R
In words: BLI.

B1: S100A9/C3S/P114C, biotinylated (natural protein, human)
chain: TSKMSQLERNIETIINTFHQYSVKLGHPDTLNQGEFKELVRKDLQNFLKKENKNEKVIEHIMEDLDTNADKQLSFEEFIMLMARLTWASHEKMHEGDEGPGHHHKPGLGEGTC
modifications: biotin (EZ-link BMCC kit; biotinylation confirmed by MALDI-TOF)
On to B1, for which the dissociation constant Kd (commonly the constant that tells how readily two partners part at equilibrium) in assay [1] was 10 µM; in assay [2] it was 3.9 µM.
